Measurements taken from IntAct's records for PubMed 19759014.

B1: Zinc transporter 6 (Homo sapiens), Q6NXT4 (parent)
chain: MGTIHLFRKPQRSFFGKLLREFRLVAADRRSWKILLFGVINLICTGFLLMWCSSTNSIALTAYTYLTIFDLFSLMTCLISYWVTLRKPSPVYSFGFERLEVLAVFASTVLAQLGALFILKESAERFLEQPEIHTGRLLVGTFVALCFNLFTMLSIRNKPFAYVSEAASTSWLQEHVADLSRSLCGIIPGLSSIFLPRMNPFVLIDLAGAFALCITYMLIEINNYFAVDTASAIAIALMTFGTMYPMSVYSGKVLLQTTPPHVIGQLDKLIREVSTLDGVLEVRNEHFWTLGFGSLAGSVHVRIRRDANEQMVLAHVTNRLYTLVSTLTVQIFKDDWIRPALLSGPVAANVLNFSDHHVIPMPLLKGTDDLNPVTSTPAKPSSPPPEFSFNTPGKNVNPVILLNTQTRPYGFGLNHGHTPYSSMLNQGLGVPGIGATQGLRTGFTNIPSRYGTNNRIGQPRP

Variants of: B1
Conditions: with znt5_human SLC30A5, Q8TAD4
znt5_human SLC30A5, Q8TAD4, sequence (Q8TAD4 whole entry): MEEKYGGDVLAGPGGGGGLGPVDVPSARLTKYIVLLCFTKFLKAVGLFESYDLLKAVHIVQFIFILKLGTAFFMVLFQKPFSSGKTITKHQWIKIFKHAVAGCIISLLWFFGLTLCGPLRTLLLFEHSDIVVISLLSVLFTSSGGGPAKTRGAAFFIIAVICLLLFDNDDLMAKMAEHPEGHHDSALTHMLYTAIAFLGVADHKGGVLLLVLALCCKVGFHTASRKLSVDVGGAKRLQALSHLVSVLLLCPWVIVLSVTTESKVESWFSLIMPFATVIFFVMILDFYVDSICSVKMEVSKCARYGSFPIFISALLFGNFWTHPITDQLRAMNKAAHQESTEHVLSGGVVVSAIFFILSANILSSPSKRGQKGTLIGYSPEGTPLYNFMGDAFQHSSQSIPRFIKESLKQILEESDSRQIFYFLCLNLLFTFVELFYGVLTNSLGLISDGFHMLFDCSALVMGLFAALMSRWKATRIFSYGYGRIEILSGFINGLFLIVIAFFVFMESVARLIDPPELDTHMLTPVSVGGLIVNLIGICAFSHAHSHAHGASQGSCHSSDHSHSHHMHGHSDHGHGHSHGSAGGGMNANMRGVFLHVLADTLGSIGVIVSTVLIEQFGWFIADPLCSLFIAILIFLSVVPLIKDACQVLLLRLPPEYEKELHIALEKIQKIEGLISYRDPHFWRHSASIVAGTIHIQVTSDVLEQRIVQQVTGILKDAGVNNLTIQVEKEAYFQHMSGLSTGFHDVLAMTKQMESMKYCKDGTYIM

Variant | effect of a mutation on the interaction
L66H;F201H | with no effect
D70A;D205A | with no effect
